Reference: US20230082287A1, “METHODS OF TREATING AN INFLAMMATORY OR OBSTRUCTIVE AIRWAY DISEASE USING ANTI-TSLP ANTIBODY” (Novartis AG, priority 2020, published 2023)
Where two headings read alike, the source gives them in different places.

How the values were obtained:
[1] = First-in-human single ascending dose study: safety and tolerability; type: in vivo
Protocol: The safety, tolerability and PK of CSJ117 have been evaluated in healthy volunteers (HV) in a single ascending dose (SAD) study.
A first-in-human, randomized, subject-blind, placebo controlled, single ascending dose study was conducted to assess the safety, tolerability and pharmacokinetics of CSJ117 in adult healthy subjects. Single dose of 1 mg (Cohort 1), 3 mg (Cohort 2), 9 mg (Cohort 3), 32 mg (Cohort 4), 64 mg (Cohort 5), 160 mg (Cohort 6) or placebo was administered via inhalation.

[2] = Phase 2a bronchoprovocation study: safety and tolerability; type: in vivo; details: 12 weeks
Text: (§1) This was a non-confirmatory, randomized, subject- and investigator-blinded, placebo-controlled, parallel-design, multi-center bronchoprovocation study. […] Two sequential dose cohorts were enrolled for this study. • Cohort 1: 24 subjects (12 active and 12 placebo) • Cohort 2a: 4 subjects (3 active and 1 placebo)
No adverse events (AE) imbalance observed across treatment groups. […] No subject discontinued study drug due to an adverse event. The most frequent treatment-emergent adverse events were headache, nasopharyngitis, and oropharyngeal pain.

[3] = in vivo
Protocol: Single dose of 1 mg (Cohort 1), 3 mg (Cohort 2), 9 mg (Cohort 3), 32 mg (Cohort 4), 64 mg (Cohort 5), 160 mg (Cohort 6) or placebo was administered via inhalation. First-in-human study was conducted in 51 healthy volunteers (HVs), of which 37 subjects were exposed to CSJ117 and 12 to placebo.
The PK analysis set for the FIH SAD Study included 37 subjects. PK samples were collected up to 28 days post dose.

[4] = test system: allergen inhalation challenge (AIC) in subjects with mild atopic asthma; assay: Phase 2a allergen bronchoprovocation study (LAR, EAR, FeNO); type: in vivo, human
Text: CSJ117, as an inhaled Fab targeting TSLP, offers the potential to be an efficacious therapy for severe asthma with a favorable safety and tolerability profile. This study used inhaled allergen bronchoprovocation testing as a model for allergic asthma, in an effort to predict CSJ117 efficacy in the eventual severe asthma patient population. As a model for allergic asthma, standardized inhaled allergen bronchoprovocation testing can induce the acute and some of the more chronic features of asthma in human subjects with mild atopic asthma. In sensitized subjects, inhalation of a relevant allergen results in acute bronchoconstriction (the early asthma response or EAR [EAR defined as ≥20% fall in forced expiratory volume in 1 second (FEV1) between 0-2 hours after inhalation of allergen] Boulet et al 2007). In approximately 50% of subjects the EAR is followed by an inflammatory airway response with prolonged airway narrowing (the late asthma response or LAR [LAR defined as ≥15% fall in FEV1 between 3-7 hours after inhalation of allergen] Boulet et al 2007). In general, inhibition of the LAR in the allergen bronchoprovocation model is a good predictor of clinical efficacy in the moderate to severe asthma patient population (Diamant et al 2013). The objectives of this allergen bronchoprovocation study were to characterize the safety, tolerability, pharmacokinetics (PK) and pharmacodynamic (PD) effects of CSJ117 in subjects with mild atopic asthma over 12 weeks of treatment to determine if further clinical development is warranted.
as §1
There was only one active dose used in the study, i.e. CSJ117 4 mg used for both Cohort 1 & 2a. Placebo subjects from all cohorts were pooled for analyses.
For all cohorts, the study consisted of a 35-day screening period, a baseline evaluation, a 12-week treatment period (consisting of a single dose on Day 1, safety evaluation Days 1-3 and commencement of QD dosing on Day 3) and a 30-day follow up period (FIG. 3).
On Day 1 (Visit 101) of the treatment period, after completion of all pre-dose assessments, subjects were randomized and received a single dose of CSJ117 or placebo in the morning and then underwent safety assessments, observation and PK sampling in-clinic for a period of 8 hours post-dose. On Day 2 (Visit 102), the subject returned to the clinic for evaluation and PK sampling. On Day 3 (Visit 103), the subjects returned to clinic for evaluation. On Day 3 (Visit 103) subjects took an inhaled dose of CSJ117 or placebo in the clinic. For the remaining duration of the 12-week treatment period, subjects took daily inhaled doses of CSJ117 or placebo, in the clinic on study visit days or at home. […]
Dog, cat, horse, mouse, cattle, rat and bird allergens were included in the challenge. Table 6 and Table 7 show the fall in FEV1 values and percentages, respectively, after the allergen challenges. […]
The early asthmatic response (EAR) after an allergen inhalation challenge on Day 42 and Day 84 was assessed by measuring the (1) area under the curve (AUC) time-adjusted percent fall in the FEV1, (2) maximum percent fall in the FEV1, and (3) minimum absolute FEV1 between 0 and 2 hours after […].

[5] = Healthy Japanese SAD study: serum CSJ117 pharmacokinetics; details: cross-study comparison at 9 and 32 mg
Protocol: In addition, the PK analysis set for the healthy Japanese SAD Study included 18 subjects, six subjects per single inhaled dose of 9, 16 and 32 mg administered via Concept 1 device.

[6] = human, inhaled or intranasal, 1 mg
[7] = human, inhaled or intranasal, 3 mg
[8] = human, inhaled or intranasal, 9 mg
[9] = human, inhaled or intranasal, 32 mg
[10] = human, inhaled or intranasal, 64 mg
[11] = human, inhaled or intranasal, 160 mg
[12] = Day 42, 4 mg QD inhaled (N = 12)
[13] = Day 84, 4 mg QD inhaled (N = 13)

B1: CSJ117: potent neutralizing antibody fragment (Fab) directed against human TSLP; heavy chain SEQ ID NO: 9, light chain SEQ ID NO: 19 (antibody)
heavy: EVQLVESGGGLVKPGGSLRLSCAASGFTFSDYWMHWVRQAPGKGLEWVGHIKSKTDAGTTDYAAPVKGRFTISRDDSKNTLYLQMNSLKTEDTAVYYCAREIYYYAFDSWGQGTLVTVSSASTKGPSVFPLAPSSKSTSGGTAALGCLVKDYFPEPVTVSWNSGALTSGVHTFPAVLQSSGLYSLSSVVTVPSSSLGTQTYICNVNHKPSNTKVDKRVEPKSC
light: SYELTQPLSVSVALGQTARITCSGDNIGSKYVHWYQQKPGQAPVLVIYGDNERPSGIPERFSGSNSGNTATLTISRAQAGDEADYYCQAADWVDFYVFGGGTKLTVLGQPKAAPSVTLFPPSSEELQANKATLVCLISDFYPGAVTVAWKADSSPVKAGVETTTPSKQSNNKYAASSYLSLTPEQWKSHRSYSCQVTHEGSTVEKTVAPTECS
Subjects with adverse events (AEs) ([1]; 7/37 CSJ117 subjects, single inhaled doses 1-160 mg): 19 % of subjects
Deaths or serious adverse events ([1]; FIH study): no deaths or serious adverse events
Severe or serious adverse events ([2]; 4 mg QD): No subject developed a severe or serious adverse event
Safety and tolerability ([2]; mild asthmatics, 4 mg QD): safe and well tolerated
rate of moderately severe adverse events ([2]; subjects receiving CSJ117 4 mg QD): 21.6%
mean terminal elimination half-life (T1/2) ([3]; human, inhaled or intranasal): 17.4 to 21.1 h
median time to achieve maximum CSJ117 serum concentration (Tmax) ([3]; human, inhaled or intranasal): 6 to 21 h
AUClast [3, 6]: 109 ng·h/mL
Cmax [3, 6]: 5.90 ng/mL
T1/2 [3, 6]: 18.5 h
Tmax [3, 6]: 21.0 h
AUClast [3, 7]: 127 ng·h/mL
Cmax [3, 7]: 5.65 ng/mL
T1/2 [3, 7]: 18.7 h
Tmax [3, 7]: 12.0 h
AUCinf [3, 8]: 597 ng·h/mL
AUClast [3, 8]: 353 ng·h/mL
CL/F [3, 8]: 15.6 L/h
Cmax [3, 8]: 12.5 ng/mL
T1/2 [3, 8]: 21.1 h
Tmax [3, 8]: 12.0 h
Vz/F [3, 8]: 481 L
AUCinf [3, 9]: 1710 ng·h/mL
AUClast [3, 9]: 1610 ng·h/mL
CL/F [3, 9]: 22.0 L/h
Cmax [3, 9]: 57.6 ng/mL
T1/2 [3, 9]: 17.4 h
Tmax [3, 9]: 6.00 h
Vz/F [3, 9]: 555 L
AUCinf [3, 10]: 2650 ng·h/mL
AUClast [3, 10]: 2500 ng·h/mL
CL/F [3, 10]: 28.5 L/h
Cmax [3, 10]: 61.4 ng/mL
T1/2 [3, 10]: 20.1 h
Tmax [3, 10]: 12.0 h
Vz/F [3, 10]: 815 L
AUCinf [3, 11]: 5750 ng·h/mL
AUClast [3, 11]: 5590 ng·h/mL
CL/F [3, 11]: 33.0 L/h
Cmax [3, 11]: 152 ng/mL
T1/2 [3, 11]: 18.2 h
Tmax [3, 11]: 9.00 h
Vz/F [3, 11]: 915 L
CSJ117 serum exposure versus dose [3]: increased in a dose-dependent manner
E, % [(B-A)/B]*100 ([4]; CSJ117 4 mg OD, LAR max fall % FEV1): 47.6%
LAR B-A (placebo minus treatment), Max fall % FEV1 ([4]; CSJ117 4 mg OD, PoC study): 8.42
LAR Treatment (A), Max fall % FEV1 ([4]; CSJ117 4 mg OD, PoC study): 9.28%
LAR time adjusted AUC 3-7 h, Difference (CSJ117-Placebo) (Table 6) ([4]; Day 42, 4 mg QD): −2.64%
LAR time adjusted AUC 3-7 h, Difference (CSJ117-Placebo) (Table 7) ([4]; Day 42, 4 mg QD): −2.90%
LAR time adjusted AUC 3-7 h, Difference (CSJ117-Placebo) (Table 8) ([4]; Day 42, 4 mg QD): −1.02%
LAR time adjusted AUC 3-7 h, Difference (CSJ117-Placebo) (Table 9) ([4]; Day 42, 4 mg QD): −4.70%
LAR time adjusted AUC 3-7 h, model-based mean estimate (Table 6) [4, 12]: 13.11%
LAR time adjusted AUC 3-7 h, model-based mean estimate (Table 7) [4, 12]: 6.46%
LAR time adjusted AUC 3-7 h, model-based mean estimate (Table 8) [4, 12]: 15.11%
LAR time adjusted AUC 3-7 h, model-based mean estimate (Table 9) [4, 12]: 27.85%
LAR time adjusted AUC 3-7 h, Difference (CSJ117-Placebo) (Table 6) ([4]; Day 84, 4 mg QD): −8.42%
LAR time adjusted AUC 3-7 h, Difference (CSJ117-Placebo) (Table 7) ([4]; Day 84, 4 mg QD): −7.18%
LAR time adjusted AUC 3-7 h, Difference (CSJ117-Placebo) (Table 8) ([4]; Day 84, 4 mg QD): −4.26%
LAR time adjusted AUC 3-7 h, Difference (CSJ117-Placebo) (Table 9) ([4]; Day 84, 4 mg QD): −5.41%
LAR time adjusted AUC 3-7 h, model-based mean estimate (Table 6) [4, 13]: 9.28%
LAR time adjusted AUC 3-7 h, model-based mean estimate (Table 7) [4, 13]: 4.20%
LAR time adjusted AUC 3-7 h, model-based mean estimate (Table 8) [4, 13]: 12.83%
LAR time adjusted AUC 3-7 h, model-based mean estimate (Table 9) [4, 13]: 25.48%
minimum absolute FEV1 between 3 and 7 hours compared with placebo ([4]; Day 84, p-value of 0.050): statistically less
AUC of the time-adjusted fall in FEV1 during the late response ([4]; day 84, 4 mg daily inhalation, vs placebo 11.38%, p=0.008): 4.20%
maximum fall % FEV1 during the late response ([4]; day 84, 4 mg daily inhalation, vs placebo 17.70%, P=0.029): 9.28%
fractional exhaled nitric oxide (FeNO) compared with placebo ([4]; over the 12-week treatment period, 4 mg QD): trend for a reduction
AUCinf in Japanese relative to non-Japanese subjects [5]: 0.6-1.5 fold
Cmax in Japanese relative to non-Japanese subjects [5]: 0.5-1.1 fold
